Patent US20240254196A1

Tests used:
human IL-1β (human) [1] = biological target: human IL-1β (human) (UniProt P01584); assay: ELISA, human IL-1β coated at 30 ng/well, detection with anti-human IgG Fc-HRP, OD 450 nm
[2] = biological target: Human FcRn (Homo sapiens) (UniProt P55899); assay: BLI (Octet Red96e), His-tagged human FcRn on Anti-Penta-HIS biosensor, pH 6.0, analyte 31.25-1000 nM, 1:1 model [A]
human FcγRIIIA (human) [3] = biological target: human FcγRIIIA (human) (UniProt P08637); assay: BLI (Octet Red96e), His-tagged human FcγRIIIA on Anti-Penta-HIS biosensor, analyte 80-1280 nM, 1:1 model [B]
human IL-1α (human) [4] = biological target: human IL-1α (human) (UniProt P01583); assay: cell-based or functional assay
human IL-1β (human) [5] = biological target: human IL-1β (human) (UniProt P01584); assay: cell-based or functional assay
human FcγRIIIA (human) [6] = biological target: human FcγRIIIA (human) (UniProt P08637); assay: BLI, Octet Red96e; His-tagged FcγRIIIA on anti-Penta-HIS sensor, 80-1,280 nM analyte; 1:1 model
human FcγRI (human) [7] = biological target: human FcγRI (human) (UniProt P12314); assay: BLI, Octet Red96e; His-tagged FcγRI on anti-Penta-HIS sensor, 80-1,280 nM analyte; 1:1 model
human FcγRI (human) [8] = biological target: human FcγRI (human) (UniProt P12314); assay: BLI (Octet Red96e), His-tagged human FcγRI on Anti-Penta-HIS biosensor, analyte 10-160 nM as printed on the sheet, 1:1 model [B]
mouse IL-1β (mouse) = mouse IL-1β (mouse) (UniProt P10749); assay: SPR, Biacore T200; binder captured by anti-human Fc, cytokine injected; 1:1 Langmuir
[9] = biological target: rhesus monkey (Rhesus macaque) IL-1β (rhesus monkey (Rhesus macaque)) (UniProt P48090); assay: as above
mouse IL-1α (mouse) = mouse IL-1α (mouse) (UniProt P01582); assay: as above
human IL-1α (human) [10] = biological target: human IL-1α (human) (UniProt P01583); assay: as above
human IL-1β (human) [11] = biological target: human IL-1β (human) (UniProt P01584); assay: as above

Sequence of mouse IL-1β (mouse) (P10749 118-269 limits assumed): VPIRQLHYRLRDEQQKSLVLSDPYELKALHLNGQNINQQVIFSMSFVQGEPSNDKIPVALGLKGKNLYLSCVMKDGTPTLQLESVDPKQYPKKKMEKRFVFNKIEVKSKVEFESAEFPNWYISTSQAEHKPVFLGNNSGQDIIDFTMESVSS
Sequence of Human FcRn (Homo sapiens) (P55899 24-297 limits assumed, chain 1 of 2): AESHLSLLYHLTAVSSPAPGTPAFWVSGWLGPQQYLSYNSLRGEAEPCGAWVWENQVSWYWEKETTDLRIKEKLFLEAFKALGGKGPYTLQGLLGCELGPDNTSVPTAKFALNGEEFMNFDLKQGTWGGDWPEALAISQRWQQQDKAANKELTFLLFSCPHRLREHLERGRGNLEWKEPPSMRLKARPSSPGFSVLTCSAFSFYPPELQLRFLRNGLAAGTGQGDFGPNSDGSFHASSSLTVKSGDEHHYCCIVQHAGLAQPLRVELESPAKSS
Sequence of Human FcRn (Homo sapiens) (chain, as listed by the source limits assumed, chain 2 of 2): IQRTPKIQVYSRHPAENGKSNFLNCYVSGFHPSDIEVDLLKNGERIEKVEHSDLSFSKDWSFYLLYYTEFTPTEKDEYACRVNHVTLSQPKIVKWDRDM
Sequence of human IL-1α (human) (P01583 113-271 limits assumed): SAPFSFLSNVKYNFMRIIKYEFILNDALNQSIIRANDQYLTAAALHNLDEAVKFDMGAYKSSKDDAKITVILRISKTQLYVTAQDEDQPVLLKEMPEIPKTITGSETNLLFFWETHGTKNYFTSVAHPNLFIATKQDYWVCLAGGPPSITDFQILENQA
Sequence of human FcγRI (human) (P12314 16-288 limits assumed): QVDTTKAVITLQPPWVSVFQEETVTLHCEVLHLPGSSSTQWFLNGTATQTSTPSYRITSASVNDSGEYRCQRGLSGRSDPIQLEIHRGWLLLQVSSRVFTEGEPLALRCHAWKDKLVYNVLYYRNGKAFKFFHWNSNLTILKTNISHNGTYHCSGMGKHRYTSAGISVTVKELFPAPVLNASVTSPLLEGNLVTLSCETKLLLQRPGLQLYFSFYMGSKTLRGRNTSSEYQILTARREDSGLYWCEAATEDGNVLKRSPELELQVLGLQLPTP
Sequence of mouse IL-1α (mouse) (P01582 115-270 limits assumed): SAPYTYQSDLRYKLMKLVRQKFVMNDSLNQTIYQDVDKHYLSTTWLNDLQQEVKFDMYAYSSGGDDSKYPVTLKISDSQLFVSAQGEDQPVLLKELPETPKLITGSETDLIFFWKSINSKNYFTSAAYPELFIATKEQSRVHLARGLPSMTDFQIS
Sequence of human FcγRIIIA (human) (P08637 17-208 limits assumed): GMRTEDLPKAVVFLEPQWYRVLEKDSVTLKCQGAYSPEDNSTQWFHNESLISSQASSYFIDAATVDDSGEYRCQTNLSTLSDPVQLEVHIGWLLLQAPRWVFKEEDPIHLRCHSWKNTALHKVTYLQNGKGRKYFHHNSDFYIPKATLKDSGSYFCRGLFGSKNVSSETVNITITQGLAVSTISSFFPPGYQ

For rilonacept (Fc fusion), the EC50 (human IL-1β (human) [1]) was 0.0947 nM, the Kd [2] was 453 nM and the koff [2] was 0.0489 s⁻¹. For the same substance, the kon [2] was 108000 M⁻¹ s⁻¹, the koff (human FcγRIIIA (human) [3]) was 0.0538 s⁻¹ and the kon (human FcγRIIIA (human) [3]) was 59000 M⁻¹ s⁻¹. It also gave an SEAP secretion, IL-1β reporter HEK 293 cell line, 10 ng/ml human IL-1α (human IL-1α (human) [4]) of 0.308 nM, an EC50 of in vivo neutralisation: inhibition of the rise of serum IL-6 in C57BL/6 mice given human IL-1β (300 ng/kg i.p.) 24 h after s.c. rilonacept (human IL-1β (human) [5]) of 10.5 µg/kg and an IL-1β-mediated IL-6 secretion, A549 cell line, 1 ng/ml IL-1β (human IL-1β (human) [5]) of 37 pM. It also gave an SEAP secretion, IL-1β reporter HEK 293 cell line, 10 ng/ml human IL-1β (human IL-1β (human) [5]) of 0.243 nM, an inhibition of SEAP secretion at 4 nM, IL-1β reporter HEK 293 cell line (human IL-1β (human) [5]) of 99.5% and an inhibitory activity (%) on the IL-1β-induced rise of serum IL-6 in mice, at a 3-fold molar excess over the administered IL-1β (human IL-1β (human) [5]) of 50%. For the same substance, the Kd (human FcγRIIIA (human) [6]) was 913 nM, the Kd (human FcγRI (human) [7]) was 45.8 nM and the koff (human FcγRI (human) [8]) was 0.00209 s⁻¹. It also gave a kon (human FcγRI (human) [8]) of 45600 M⁻¹ s⁻¹, a Kd (mouse IL-1β (mouse)) of 0.369 nM and a koff (mouse IL-1β (mouse)) of 0.000328 s⁻¹. For the same substance, the kon (mouse IL-1β (mouse)) was 890000 M⁻¹ s⁻¹, the Kd [9] was 0.00178 nM and the koff [9] was 2.43e-05 s⁻¹. The kon [9] was 1.36e+07 M⁻¹ s⁻¹, the Kd (mouse IL-1α (mouse)) was 0.0383 nM and the koff (mouse IL-1α (mouse)) was 0.000178 s⁻¹. For the same substance, the kon (mouse IL-1α (mouse)) was 4.66e+06 M⁻¹ s⁻¹, the Kd (human IL-1α (human) [10]) was 0.00491 nM and the koff (human IL-1α (human) [10]) was 4.5e-05 s⁻¹. For the same substance, the kon (human IL-1α (human) [10]) was 9.18e+06 M⁻¹ s⁻¹, the Kd (human IL-1β (human) [11]) was 0.00256 nM and the koff (human IL-1β (human) [11]) was 8.67e-05 s⁻¹. It also gave a kon (human IL-1β (human) [11]) of 3.39e+07 M⁻¹ s⁻¹.
